Assay [1] deals with Torpedo californica acetylcholinesterase (Torpedo californica) (UniProt P04058). The assay can be described thus: titration of enzyme activity.
The target is the same in assay [2]. The assay can be described thus: kinetics of approach to equilibrium by enzyme activity.
Assay [3] has as its target T1, Torpedo californica acetylcholinesterase (Torpedo californica, UniProt P04058 22-564). Described as above.
The target of assay [4] is T1, Torpedo californica acetylcholinesterase. The assay can be described thus: titration of enzyme activity.

Broadly, the Kd is the free concentration of one partner at which half of the binding sites on the other are occupied at equilibrium, for simple one-to-one binding. Low values mean higher affinity, high ones lower affinity. In general, koff refers to a measure of how fast the partners let go of each other. The kon is a measure of how fast the partners come together. Lower therefore signals slower complex formation.

On to “fasciculin double mutant T8V/T9N (natural protein)”, for which the Kd in assay [1] came out at 0.64 nM. In assay [2], this molecule gave a Kd of 0.6 nM, a koff of 0.0505 s⁻¹ and a kon of 8.5e+07 M⁻¹ s⁻¹.

On to “fasciculin mutant H29R (natural protein)”, for which the Kd in assay [1] was 0.052 nM. Also, in assay [2], the Kd was 0.03 nM, the koff was 0.0127 s⁻¹ and the kon stood at 3.9e+08 M⁻¹ s⁻¹.

In assay [1], “fasciculin mutant K32R (natural protein)” had a Kd of 2.3 nM. In assay [2], this molecule had a Kd of 2.6 nM and a koff of 0.09 s⁻¹.

In turn, “fasciculin mutant R11K (natural protein)” came in with a Kd in assay [1] of 0.53 nM. Moreover, in assay [2], the Kd came out at 0.63 nM, the koff was determined as 0.0293 s⁻¹ and the kon worked out at 4.7e+07 M⁻¹ s⁻¹.

In assay [1], fasciculin mutant T8V (natural protein) returned a Kd of 0.125 nM.

fasciculin mutant T9N (natural protein): the Kd in assay [1] is 2.8 nM.

B1: recombinant wild-type fasciculin-2 (natural protein)
chain: TMCYSHTTTSRAILTNCGENSCYRKSRRHPPKMVLGRGCGCPPGDDNLEVKCCTSPDKCNY
In assay [3], B1 had a Kd of 0.37 nM, a koff of 0.025 s⁻¹ and a kon of 6.8e+07 M⁻¹ s⁻¹. The same molecule registered an equilibrium dissociation constant (Kd) in assay [4] of 0.31 nM.
